In patent US20240109937A1, “BINDING PEPTIDES AND USES THEREOF” (The Johns Hopkins University, priority 2021, published 2024) one finds Kd data, which are given here for 1 molecule.

For test [1], the target named is T1, Peptidylprolyl isomerase A (PPIA), also known as cyclophilin A (CypA), P62937. Kind of test: printed as 'Disrupts the complex AIF/Cyclophilin with a KD'; method not stated.
Test [2] has as its target T1, Peptidylprolyl isomerase A (PPIA), also …. Kind of test: method not stated; told in the description of FIG. 20.

T1 sequence (P62937 whole entry): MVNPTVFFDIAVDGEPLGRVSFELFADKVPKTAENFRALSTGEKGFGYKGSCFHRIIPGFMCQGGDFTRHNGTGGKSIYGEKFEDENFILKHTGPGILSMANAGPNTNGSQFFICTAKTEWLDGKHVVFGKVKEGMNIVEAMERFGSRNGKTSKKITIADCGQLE

By Kd is commonly meant the concentration at which binding is half-saturated. A low value points to higher affinity. On to GRKKRRQRRRAQSVGVSSGKLLIKLKDGRKVETDHI (modifications not checked) [TAT-AIF (370-394)], for which the equilibrium dissociation constant (Kd) in test [1] is 5 µM; in test [2], 12 µM.
